The assay addresses Human γD-crystallin V75D (human).

Among the data in paper PMC3360035 are suppression of aggregation on dilution out of 5 M GdnHCl (from maximum A350), αB in 5-fold molar excess values, retold here.

Chain of Human γD-crystallin V75D (human) (P07320 2-174 V76D): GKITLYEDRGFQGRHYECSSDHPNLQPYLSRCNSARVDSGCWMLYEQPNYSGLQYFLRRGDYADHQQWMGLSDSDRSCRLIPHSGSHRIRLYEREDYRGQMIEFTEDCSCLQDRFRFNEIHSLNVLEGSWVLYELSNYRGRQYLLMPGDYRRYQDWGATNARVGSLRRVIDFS

B1: αB-crystallin, wild type (natural protein)
chain: MDIAIHHPWIRRPFFPFHSPSRLFDQFFGEHLLESDLFPTSTSLSPFYLRPPSFLRAPSWFDTGLSEMRLEKDRFSVNLDVKHFSPEELKVKVLGDVIEVHGKHEERQDEHGFISREFHRKYRIPADVDPLTITSSLSSDGVLTVNGPRKQVSGPERTIPITREEKPAVTAAPKK
As to B1, the suppression of aggregation on dilution out of 5 M GdnHCl (from maximum A350), αB in 5-fold molar excess was 73%.
